From paper PMC12393501, “Recruitment of Mre11 to recombination sites during meiosis” (Research Square, 2025) come the findings set out here.

B1: HisSUMO-tagged Mer2 [S. cerevisiae] / MBP-tagged Mre11-C49 peptide [S. cerevisiae] (parent)
chain 1: SYGLLNGRKTKTKTRPAASTKTASRRGKGRASRTPKTDILGSLLAKKRK
chain 2: MVARGRTDEISTDVSEANSEHSLMITETSSPFRSIFSHSGKVANAGALEESDKQILEWAGKLELESMELRENSDKLIKVLNENSKTLCKSLNKFNQLLEQDAATNGNVKTLIKDLASQIENQLDKVSTAMLSKGDEKKTKSDSSYRQVLVEEISRYNSKITRHVTNKQHETEKSMRCTQEMLFNVGSQLEDVHKVLLSLSKDMHSLQTRQTALEMAFREKADHAYDRPDVSLNGTTLLHDMDEAHDKQRKKSVPPPRMMVTRSMKRRRSSSPTLSTSQNHNSEDNDDASHRLKRAARTIIPWEELRPDTLESEL

Variants of B1 are the subject of this test. The experiment in a line: co-expression Ni-NTA pulldown, anti-MBP immunoblot quantification. The conditions noted are these: with MBP-tagged Mre11-C49 peptide [S. cerevisiae]; co-expressed in E. coli; at least seven independent samples; parent: 1; read off a plot. (In general: A western blot detects proteins with antibodies after separation by electrophoresis.)
As for chain 2 E50A Q54A E57A K61A, the ratio to parent was 0.27.
